Fewer inactive variants are shown than the library holds.
Key:
biotinyl-Val-oxazolone = assay: self-aminoacylation, catalytic enhancement (BVO) (fold over background); higher = more active; k-Seq, kA / k0A0; sequences stand for … in GGGAAUGGAUCCACAUCUACGAAUUC…UUCACUGCAGACUUGACGAAGCUG
Summary of the method: (§1)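 Each biotinyl-aminoacyl-oxazolone, at 2–1250 μM, was incubated with mutagenized RNA pools (0.43 μM) carrying a 21-nt variable region. The 50 μL reactions contained HEPES/NaCl/KCl/MgCl2/CaCl2 buffer with 5% acetonitrile at pH 6.9–7.0 and ran for 90 minutes at room temperature. After streptavidin capture, RNA was measured by qPCR in triplicate and by Illumina sequencing, and catalytic enhancement was calculated as median kA over the uncatalyzed rate from a pseudo-first-order fit of per-sequence fraction reacted.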

biotinyl-Leu-oxazolone = assay: self-aminoacylation, catalytic enhancement (BLO) (fold over background); higher = more active; k-Seq, kA / k0A0; sequences stand for … in GGGAAUGGAUCCACAUCUACGAAUUC…UUCACUGCAGACUUGACGAAGCUG
Summary of the method: as §1

biotinyl-Ile-oxazolone = assay: self-aminoacylation, catalytic enhancement (BIO) (fold over background); higher = more active; k-Seq, kA / k0A0; sequences stand for … in GGGAAUGGAUCCACAUCUACGAAUUC…UUCACUGCAGACUUGACGAAGCUG
Summary of the method: as §1

biotinyl-Trp-oxazolone = assay: self-aminoacylation, catalytic enhancement (BWO) (fold over background); higher = more active; k-Seq, kA / k0A0; sequences stand for … in GGGAAUGGAUCCACAUCUACGAAUUC…UUCACUGCAGACUUGACGAAGCUG
Summary of the method: as §1

biotinyl-Phe-oxazolone = assay: self-aminoacylation, catalytic enhancement (BFO) (fold over background); higher = more active; k-Seq, kA / k0A0; sequences stand for … in GGGAAUGGAUCCACAUCUACGAAUUC…UUCACUGCAGACUUGACGAAGCUG
Summary of the method: as §1

biotinyl-Met-oxazolone = assay: self-aminoacylation, catalytic enhancement (BMO) (fold over background); higher = more active; k-Seq, kA / k0A0; sequences stand for … in GGGAAUGGAUCCACAUCUACGAAUUC…UUCACUGCAGACUUGACGAAGCUG
Summary of the method: as §1

| Sequence | self-aminoacylation (biotinyl-Val-oxazolone) | self-aminoacylation (biotinyl-Leu-oxazolone) | self-aminoacylation (biotinyl-Ile-oxazolone) | self-aminoacylation (biotinyl-Trp-oxazolone) | self-aminoacylation (biotinyl-Phe-oxazolone) | self-aminoacylation (biotinyl-Met-oxazolone) |
| --- | --- | --- | --- | --- | --- | --- |
| AUUCCCCUAGGUCAUUGGGUG [Fam2.2 aminoacylation ribozyme variant] | 7.95 | 15.6 | 7.23 | 11.8 | 92.5 | 10.3 |
| CUACUUUCAACAAUCGGUCUG [Fam1A.1 aminoacylation ribozyme variant] | 1.06 | 1.09 | 0.99 | 10.3 | 14.5 | 0.895 |
| AUUCAAAUAGGUCAUCGGGUG [Fam2.2 aminoacylation ribozyme variant] | 3.38 | 7.01 | 3.9 | 5.77 | 40.1 | 5.54 |
| CUACUUCAUACAAUGGGUCUG [Fam1A.1 aminoacylation ribozyme variant] | 0.757 | 0.803 | 0.805 | 0.764 | 0.65 | 0.755 |
| AUUAUCCUGGUCAUCUAGUGA [Fam2.1 aminoacylation ribozyme variant] | 4.98 | 10.8 | 4.87 | 13.2 | 77.8 | 10.6 |
| AUUACCCUGGUCAUCGAAUGC [Fam2.1 aminoacylation ribozyme variant] | 0.68 | 0.723 | 1.04 | 0.726 | 0.567 | 0.827 |
| GCACACUACAAGCAAUCGGUC [Fam1B.1 aminoacylation ribozyme variant] | 1.26 | 1.14 | 1.36 | 1.68 | 1.55 | 0.979 |
| CCACACUUCACGCUAUCGGUC [Fam1B.1 aminoacylation ribozyme variant] | 1.17 | 0.971 | 1.13 | 0.951 | 1.09 | 1.03 |
| AUUCACCUAGGUCAUGGGAUG [Fam2.2 aminoacylation ribozyme variant] | 0.657 | 0.611 | 0.596 | 0.315 | 0.397 | 0.66 |
| AUUCACCUUGGUCAUCGGUUG [Fam2.2 aminoacylation ribozyme variant] | 1.06 | 0.855 | 0.9 | 0.806 | 0.347 | 0.844 |
| AUUAGCCUGGGCAUCGAGUGA [Fam2.1 aminoacylation ribozyme variant] | 3.8 | 8.51 | 3.66 | 7.8 | 57.8 | 6.92 |
| CCACACUUCAAUCCAUCGGUC [Fam1B.1 aminoacylation ribozyme variant] | 0.91 | 0.676 | 0.801 | 0.553 | 0.794 | 0.824 |
| AAGCUAGCUAAUAGUCGCAAG [Fam3.1 aminoacylation ribozyme variant] | 1.62 | 2.26 | 2.2 | 2.47 | 4.5 | 1.36 |
| CCACACUUCAAACAAUCGGUA [Fam1B.1 aminoacylation ribozyme variant] | 1.02 | 0.734 | 0.873 | 1.47 | 1.62 | 0.947 |
| AUUCACCUAGUUCAUCGGGCG [Fam2.2 aminoacylation ribozyme variant] | 1.93 | 1.96 | 1.95 | 2.88 | 5.7 | 2.19 |
| CCACACUUCAACCAAUCGGGC [Fam1B.1 aminoacylation ribozyme variant] | 2.93 | 2.24 | 1.91 | 2.09 | 3.78 | 1.75 |
| AUUCACCGGGGUCAUCGGGUG [Fam2.2 aminoacylation ribozyme variant] | 7.4 | 10.7 | 6.47 | 9.14 | 80.5 | 8.15 |
| CUACUUCAAACAUUGGGUCUG [Fam1A.1 aminoacylation ribozyme variant] | 0.977 | 0.868 | 0.914 | 0.716 | 0.555 | 0.944 |
| CCACACUUCGAGCAAUAGGUC [Fam1B.1 aminoacylation ribozyme variant] | 0.785 | 0.446 | 0.703 | 0.361 | 0.533 | 0.588 |
| CGACUUAAAACAAUCGGUCUG [Fam1A.1 aminoacylation ribozyme variant] | 1.17 | 1.26 | 1.33 | 1.06 | 1.15 | 1.48 |
| AUUCACCUAGGUAAUCAGGUG [Fam2.2 aminoacylation ribozyme variant] | 0.989 | 1.31 | 0.967 | 0.933 | 1.21 | 1.25 |
| UACUUUGCUAAUAGUCGCAAG [Fam3.1 aminoacylation ribozyme variant] | 1.33 | 1.86 | 1.75 | 1.46 | 2.71 | 1.66 |
| AAGUUUGCUAAUAGUCGCAUC [Fam3.1 aminoacylation ribozyme variant] | 0.706 | 0.61 | 0.778 | 0.681 | 1.53 | 0.649 |
| ACACACUUCAAUCAAUCGGUC [Fam1B.1 aminoacylation ribozyme variant] | 1.53 | 1.74 | 1.59 | 19.8 | 29.4 | 1.39 |
| AUUCACAUAGGUCAUCGGGAG [Fam2.2 aminoacylation ribozyme variant] | 1.19 | 0.985 | 1 | 1.76 | 0.953 | 1.13 |
| AUUACCCUGGUCGUCGGGUGA [Fam2.1 aminoacylation ribozyme variant] | 2.98 | 4.72 | 2.86 | 5.14 | 26.3 | 3.87 |

| Sequence | self-aminoacylation (biotinyl-Val-oxazolone) | self-aminoacylation (biotinyl-Leu-oxazolone) | self-aminoacylation (biotinyl-Ile-oxazolone) | self-aminoacylation (biotinyl-Trp-oxazolone) | self-aminoacylation (biotinyl-Phe-oxazolone) | self-aminoacylation (biotinyl-Met-oxazolone) |
| --- | --- | --- | --- | --- | --- | --- |
| AAGUUCGCUAAUAGUCACAAG [Fam3.1 aminoacylation ribozyme variant] | 1.25 | 1.6 | 1.59 | 1.64 | 3.01 | 1.56 |
| AUUACCCUGGUAUUCGAGUGA [Fam2.1 aminoacylation ribozyme variant] | 3.65 | 7.89 | 3.56 | 9.54 | 42.4 | 7.43 |
| AUUCCCCUAGGUCGUCGGGUG [Fam2.2 aminoacylation ribozyme variant] | 5.97 | 9.19 | 5.97 | 7.42 | 31.9 | 7.13 |
| CUACGUCAUACAAUCGGUCUG [Fam1A.1 aminoacylation ribozyme variant] | 1.09 | 1.27 | 1.1 | 0.994 | 1.1 | 1.1 |
| CUACCUCAAACAAUCGGACUG [Fam1A.1 aminoacylation ribozyme variant] | 0.833 | 0.614 | 0.872 | 1.05 | 1.27 | 0.915 |
| CCACACUUCAGGCAAUCGGUC [Fam1B.1 aminoacylation ribozyme variant] | 1.27 | 1.11 | 1.14 | 1.28 | 1.47 | 1.14 |
| CUACUUCAAACGAGCGGUCUG [Fam1A.1 aminoacylation ribozyme variant] | 1.02 | 0.689 | 0.8 | 0.477 | 0.761 | 0.943 |
| AUUAGCCUGGUCAUAGAGUGA [Fam2.1 aminoacylation ribozyme variant] | 3.18 | 5.43 | 2.96 | 7.07 | 18.4 | 4.83 |
| UCACACUUCAAGCAGUCGGUC [Fam1B.1 aminoacylation ribozyme variant] | 0.972 | 0.879 | 0.827 | 0.901 | 1.06 | 0.968 |
| CCACACUUCGAGCAAUCGGUU [Fam1B.1 aminoacylation ribozyme variant] | 1.63 | 1.1 | 1.41 | 1.65 | 0.768 | 1.83 |
| AUUACCCUGGGCAUUGAGUGA [Fam2.1 aminoacylation ribozyme variant] | 4.23 | 11.3 | 4.38 | 11.9 | 58.7 | 9.32 |
| AUUCACCUAGGACAUCGAGUG [Fam2.2 aminoacylation ribozyme variant] | 1.12 | 1.81 | 1.02 | 1.89 | 2.04 | 1.52 |
| AAGUUUGCUGAUAGUAGCAAG [Fam3.1 aminoacylation ribozyme variant] | 1.24 | 0.88 | 0.892 | 1.05 | 1.41 | 1.07 |
| CCACACUUCAAGCAACCAGUC [Fam1B.1 aminoacylation ribozyme variant] | 0.941 | 0.725 | 1.08 | 0.79 | 1.26 | 1.04 |
| AAGUUAGCUAAUGGUCGCAAG [Fam3.1 aminoacylation ribozyme variant] | 1.08 | 1.17 | 1.22 | 1.55 | 1.77 | 1.3 |
| AAGUUUGCUAAGAGUGGCAAG [Fam3.1 aminoacylation ribozyme variant] | 1.11 | 0.724 | 0.861 | 0.872 | 0.543 | 0.955 |
| CAUCACCUAGGUCAUCGGGUG [Fam2.2 aminoacylation ribozyme variant] | 4.05 | 6.23 | 3.15 | 5.76 | 21 | 6.18 |
| AUUCACCUAGGGCAUCGGGUG [Fam2.2 aminoacylation ribozyme variant] | 3 | 4.05 | 2.78 | 3.4 | 20.3 | 3.55 |
| CUACUUCAAAAAAUCGGUCUU [Fam1A.1 aminoacylation ribozyme variant] | 0.807 | 1.05 | 1.02 | 4.11 | 5.8 | 0.966 |
| AUUCACCUAGGUCAUCGGUUG [Fam2.2 aminoacylation ribozyme variant] | 1.03 | 1.11 | 1 | 0.932 | 1.02 | 1.01 |
| CUAUUUCAAACAAUCGGUGUG [Fam1A.1 aminoacylation ribozyme variant] | 0.83 | 0.992 | 0.727 | 0.757 | 0.988 | 1.01 |
| CCACACUUCAACCCAUCGGUC [Fam1B.1 aminoacylation ribozyme variant] | 1.72 | 1.24 | 1.34 | 1.04 | 0.791 | 1.11 |
| CCACACUUCAGACAAUCGGUC [Fam1B.1 aminoacylation ribozyme variant] | 1.26 | 1.53 | 1.17 | 1.29 | 1.33 | 0.902 |
| AGGUUUGCUAAUAGUCGCAGG [Fam3.1 aminoacylation ribozyme variant] | 1.52 | 1.7 | 1.97 | 1.99 | 4.15 | 2.21 |
| AAGUUUGCUAAUUGUUGCAAG [Fam3.1 aminoacylation ribozyme variant] | 0.775 | 0.945 | 0.929 | 0.926 | 1.11 | 0.901 |

Reference: the supplement of paper PMC9233669
